This passage reports protein stability index results from the supplement of paper PMC10567573.

The data set is described as follows: protein stability index of a GFP-peptide fusion (GPS, HEK-293T) (PSI 1-6); higher = more stable. As to conditions: c terminus: a fixed tail appended.

± gives the standard deviation.
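Also: 24-mer peptide tiles fused after GFP, lentivirally expressed, FACS-sorted into six equal bins by GFP/DsRed ratio, decoded by Illumina sequencing, PSI is the read-weighted mean bin number.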

WVKGSVPPPLDQYVKFDAVSGDYY [CLPTM1] gave a protein stability index (treatment: DMSO) of 2.79 ± 0.24 and a protein stability index (treatment: MLN4924 1 uM, 8 h) of 2.72 ± 0.28.
The matching figures for KKFELVPSPPTSPPWGLGPGAGDP [MYCL]: 4.1 ± 0.28 and 4.07 ± 0.21.
Taken in the same sequence, the figures for EAFRLKQQLHARYVLNLLYETKKH [PPEF2] were 2.5 ± 0.61 and 2.36 ± 0.33.
Taken in the same sequence, the figures for GCLAEAVSVIQSIPIFNETGRFSF [HACD3] were 2.91 ± 0.66 and 2.6 ± 0.77.
As to QYLMASDMAGKIKLWDLRTTKCVR [DCAF4], the protein stability index was found to be 2.26 ± 0.11 (treatment: DMSO) and 2.43 ± 0.26 (treatment: MLN4924 1 uM, 8 h).
Taken in the same sequence, the figures for MEEEDPMPRQISRQSSVTESTLYP [TPRG1] were 5.1 ± 0.32 and 5.26 ± 0.34.
Taken in the same sequence, the figures for HDGKNQPSKTYPAFLEPDETFIVP [SPSB1] were 4.28 ± 0.19 and 4.25 ± 0.39.
Regarding MRDQYEQMAEKNRRDAETWFLSKT [KRT16], the protein stability index (treatment: DMSO) was determined as 4.29 ± 0.089 and the protein stability index (treatment: MLN4924 1 uM, 8 h) came to 4.31 ± 0.12.
Taken in the same sequence, the figures for LRERVKKVKRSLRQARKKGRHLEL [CCDC3] were 3.36 ± 0.39 and 3.58 ± 0.71.
Taken in the same sequence, the figures for FSGWISALVVPKGNTAVSVLMLLV [SCAMP3] were 2.87 ± 0.39 and 2.73 ± 0.46.
The matching figures for PKTQACSGSESPSDSGKDLPEPSK [MYCL]: 5.36 ± 0.23 and 5.63 ± 0.25.
NLARQWNNCAFLESSAKSKINVNE [RAP1B] came in with a protein stability index (treatment: DMSO) of 2.93 ± 0.33 and a protein stability index (treatment: MLN4924 1 uM, 8 h) of 2.75 ± 0.19.
Taken in the same sequence, the figures for YDTTLALGHAAAFSDDCDLPSAQD [GLT8D2] were 5.33 ± 0.2 and 5.31 ± 0.3.
Taken in the same sequence, the figures for FDSPSLCSSSTRSVLKRPERSQEE [CDC25A] were 5.04 ± 0.31 and 5.12 ± 0.16.
Sequence QVHDDDLLSSSEEECKDRERPMYG [EMD] came in with a protein stability index (treatment: DMSO) of 5.49 ± 0.22 and a protein stability index (treatment: MLN4924 1 uM, 8 h) of 5.41 ± 0.13.
Taken in the same sequence, the figures for HLLIPELGACVAPGGNLIVELARY [DNAAF3] were 2.28 ± 0.085 and 2.25 ± 0.24.
As to ITPWTPSPSEKNSSFTWSVPSSGY [SMTNL2], the protein stability index is 2.72 ± 0.3 (treatment: DMSO) and 2.75 ± 0.34 (treatment: MLN4924 1 uM, 8 h).
Taken in the same sequence, the figures for DPALRRRRRGPRNKKRGWRRLAQE [NOP53] were 4.73 ± 0.3 and 4.92 ± 0.24.
The matching figures for QAFRAIDRADYYLEEFKENAYKDL [PCMTD2]: 3.34 ± 0.15 and 3.17 ± 0.23.
Taken in the same sequence, the figures for FLFPIDISLVKREHDFLDRDAIEA [DLC1] were 2.66 ± 0.57 and 2.72 ± 0.31.
In the case of NKIKVMHKQLLLFHNAVSAYFAGN [ARFIP2], the protein stability index by setting is: (treatment: DMSO) 2.55 ± 0.64; (treatment: MLN4924 1 uM, 8 h) 2.34 ± 0.24.
Taken in the same sequence, the figures for GLLALAIGLWGLAVKGSLGSDLGG [TSPAN10] were 4.49 ± 0.53 and 3.4 ± 0.37.
Regarding RRRIEEERLRLEQQKQQIMAALNS [ACBD3], the protein stability index reads like this: (treatment: DMSO) 4.05 ± 0.14; (treatment: MLN4924 1 uM, 8 h) 4.58 ± 0.2.
The matching figures for HMNRLQSQRAMLLQGTESLNRATQ [VTI1B]: 4.12 ± 0.12 and 3.895 ± 0.03.
Taken in the same sequence, the figures for KMNFIKTYPAHQNRVSAIIFSLAT [WDFY1] were 2.65 ± 0.51 and 2.5 ± 0.37.
Taken in the same sequence, the figures for NGNEEDNHLPPQTKRSSRNPVFQD [FAM104A] were 5.16 ± 0.29 and 5.26 ± 0.2.
As for RESRGSTRGKRESESRGSSGRVKR [USP39], the protein stability index came out at 5.14 ± 0.32 (treatment: DMSO) and 5.24 ± 0.33 (treatment: MLN4924 1 uM, 8 h).
Taken in the same sequence, the figures for LTILAKRKSLFDDKAVEIEELTYI [STX5] were 2.2 ± 0.35 and 2.22 ± 0.49.
Turning to NLGPKSKVLILRNHGLVSVGESVE [ADD1], the protein stability index (treatment: DMSO) worked out at 2.69 ± 0.23 and the protein stability index (treatment: MLN4924 1 uM, 8 h) was found to be 3.05 ± 0.38.
The matching figures for KYWCVTATRVAPERLFGSAANVVS [ZBED1]: 2.25 ± 0.34 and 2.38 ± 0.28.
Taken in the same sequence, the figures for EVHFLHEESILERVQQHIESKLLG [MLH1] were 2.98 ± 0.19 and 3.19 ± 0.24.
The matching figures for TDHQTPPTSPVQGTTPQISPSTLI [HDAC6]: 4.93 ± 0.16 and 4.86 ± 0.27.
Consider ARQAACCVARPGTPSLLRFALASL [ZSWIM9], for which the protein stability index stood at 2.33 ± 0.17 (treatment: DMSO) and 2.43 ± 0.32 (treatment: MLN4924 1 uM, 8 h).
The matching figures for DALMKEQLVEMTGLSPRVIRVWFQ [ISL2]: 2.27 ± 0.27 and 2.22 ± 0.12.
The matching figures for VQEDLEAEFQSLFSLLEELKEGML [FSD1]: 2.99 ± 0.57 and 3.01 ± 0.53.
As for LTTSQERELGIRQRDEQLRALQER [FBF1], the protein stability index by setting is: (treatment: DMSO) 5.02 ± 0.38; (treatment: MLN4924 1 uM, 8 h) 5.24 ± 0.29.
The matching figures for STPVRREVTDKEQEFAARAAKQLE [EPB41L3]: 5.28 ± 0.2 and 5.27 ± 0.21.
On to DPDVGVNSLQSYQLSPNKHFSLRV [PCDHGA10], for which the protein stability index (treatment: DMSO) was determined as 2.6 ± 0.25 and the protein stability index (treatment: MLN4924 1 uM, 8 h) came out at 2.51 ± 0.24.
The matching figures for HISSCKLGPQVSLDPMKNVTCENG [LOXL2]: 4.15 ± 0.39 and 4.14 ± 0.49.
Taken in the same sequence, the figures for PPPPPPSRGGPPPPPPPPHNSGPP [WASL] were 5.28 ± 0.17 and 5.3 ± 0.2.
The matching figures for SGAFQWEELEEDIRKKLKDSGDVS [RHOBTB3]: 5.17 ± 0.27 and 5.2 ± 0.34.
Take VLAAKERRCGELKRKLGLTALVGL [TPD52L3]: the protein stability index stood at 2.44 ± 0.24 (treatment: DMSO) and 2.07 ± 0.23 (treatment: MLN4924 1 uM, 8 h).
The matching figures for YGGGLGGGFGGGFAGGFVDFGACD [KRT13]: 2.39 ± 0.46 and 2.14 ± 0.67.
For the sequence YAMKYMNKQKCVERNEVRNVFKEL [STK32A], the protein stability index was 2.07 ± 0.41 (treatment: DMSO) and 2.24 ± 0.62 (treatment: MLN4924 1 uM, 8 h).
The matching figures for TASSLVKINLQGDIVDRGSTNLGV [ADD1]: 3.36 ± 0.68 and 3.36 ± 0.25.
The matching figures for NTLAPTCFKAKLHRKRGSQPPDMA [RSPH3]: 3.83 ± 0.12 and 3.87 ± 0.25.
The matching figures for FPDGDDEFDSPHEDIVFETDHILE [STX11]: 5.19 ± 0.25 and 5.29 ± 0.16.
The sequence LEAIQLDGEILFSLLQKVSPVAHK [TBC1D10A] showed a protein stability index (treatment: DMSO) of 2.12 ± 0.48 and a protein stability index (treatment: MLN4924 1 uM, 8 h) of 2.01 ± 0.34.
Taken in the same sequence, the figures for EHYRVQTQQTGTVRFDGYVIDGAT [FEM1B] were 3.64 ± 0.3 and 3.88 ± 0.26.
For QGPMSQRRENYGVPPRRATISSWR [RBMY1A1], the protein stability index reads like this: (treatment: DMSO) 3.68 ± 0.22; (treatment: MLN4924 1 uM, 8 h) 3.57 ± 0.36.
The matching figures for IARVHGTFGAAACSIGFAVRYLNA [POP5]: 2.22 ± 0.26 and 2.25 ± 0.56.
The matching figures for FTFEGFSRLRFLNLGRMIDWVPVE [ZER1]: 2.76 ± 0.63 and 2.81 ± 0.43.
Turning to MEADSPAGPGAPEPLAEGAAAEFS [SLC35F2], the protein stability index reads like this: (treatment: DMSO) 5.5 ± 0.27; (treatment: MLN4924 1 uM, 8 h) 5.48 ± 0.29.
On to KILPWSPEKIGTRFLLYTNENPNN [PNLIPRP1], for which the protein stability index is, setting by setting: (treatment: DMSO) 2.56 ± 0.28; (treatment: MLN4924 1 uM, 8 h) 2.89 ± 0.28.
As to SSVEDLKAKFCSTVANDVMLRTGL [NETO1], the protein stability index came out at 2.97 ± 0.14 (treatment: DMSO) and 3.07 ± 0.14 (treatment: MLN4924 1 uM, 8 h).
Taken in the same sequence, the figures for ELYGLALRFFKEKDGKAFHPTYEE [ACBD3] were 2.13 ± 0.26 and 2.19 ± 0.35.
The matching figures for AEMNRGSNEWKTVVGGAMFFIGFT [COX4I1]: 2.95 ± 0.91 and 3.18 ± 0.44.
Taken in the same sequence, the figures for YSHSSTRDGRRDRYSSDTTPLLNG [GOSR1] were 4.28 ± 0.4 and 4.31 ± 0.11.
For ATAVGGGFFLLQLANHTGYIKVDW [FUNDC2], the protein stability index reads like this: (treatment: DMSO) 3.27 ± 0.8; (treatment: MLN4924 1 uM, 8 h) 3.08 ± 0.47.
The matching figures for DNILSLINVNDLSFVTGSHVGELI [WDR41]: 2.36 ± 0.32 and 2.63 ± 0.31.
As to QNCLWTLRNLSDAATKQEGMEGLL [CTNNB1], the protein stability index was 3.23 ± 0.28 (treatment: DMSO) and 3.04 ± 0.18 (treatment: MLN4924 1 uM, 8 h).
Taken in the same sequence, the figures for LRYQETPGPREALSQLRVLCCEWL [ZNF232] were 2.13 ± 0.23 and 2.29 ± 0.22.
On to PRLTMHYPCLEKPRIWSLAHTATA [IRX6], for which the protein stability index turned out to be 2.31 ± 0.18 (treatment: DMSO) and 2.5 ± 0.11 (treatment: MLN4924 1 uM, 8 h).
Taken in the same sequence, the figures for CGKAFYKKYRLTEHERAHRGEKPH [ZNF649] were 3.03 ± 0.33 and 3.18 ± 0.18.
Taken in the same sequence, the figures for RAPRSPGQVTPRGLRLRLPRRESL [C6orf223] were 4.19 ± 0.35 and 4.41 ± 0.25.
Taken in the same sequence, the figures for TWEQTFQELIQEAKPRATWTLKLD [RTP4] were 2.02 ± 0.24 and 2.25 ± 0.33.
In the case of EEPELSPAYLISEAMRRSRMSLYC [GFOD1], the protein stability index is 2.43 ± 0.23 (treatment: DMSO) and 2.37 ± 0.3 (treatment: MLN4924 1 uM, 8 h).
In the case of KVTDHATTALLHYQLPQMPDVVVR [MED27], the protein stability index (treatment: DMSO) was found to be 3.07 ± 0.19 and the protein stability index (treatment: MLN4924 1 uM, 8 h) was 3.28 ± 0.24.
In the case of SVSSCDQEHQSALEEAKQPKNDNV [SMOC2], the protein stability index is 5.38 ± 0.21 (treatment: DMSO) and 5.64 ± 0.082 (treatment: MLN4924 1 uM, 8 h).
The matching figures for IYGPGNLSTNNNTLRDHFKGISSH [SLC2A12]: 2.95 ± 0.26 and 3 ± 0.14.
With SLSHSPGCSSTQGNGRPGRPSQYR [LCOR], the protein stability index amounted to 4.44 ± 0.13 (treatment: DMSO) and 4.67 ± 0.22 (treatment: MLN4924 1 uM, 8 h).
The matching figures for YIGSIMKGGAVAADGRIEPGDMLL [DVL3]: 2.34 ± 0.22 and 2.57 ± 0.43.
